In patent publication US20100015126A1, “Methods of Binding of Cross-Beta Structures By Chaperones” (priority 2006, published 2010):

Legend:
Test in all cases: cell-based or functional assay
[1] = target: synthetic peptide 6BB13
[2] = target: synthetic peptide 6BB9
[3] = target: synthetic peptide 6BB11
[4] = target: synthetic peptide 6BB10
[5] = target: synthetic human Aβ16-22 (6BB12) (human)
[6] = target: synthetic human Aβ25-35 (6BB6) (human)

Chain of recombinant human BiP with C-terminal linker, FLAG-tag and His-tag (BiP-FLAG-His), P11021 19-654 (P11021 other isoform, or with tags, fused parts or gaps): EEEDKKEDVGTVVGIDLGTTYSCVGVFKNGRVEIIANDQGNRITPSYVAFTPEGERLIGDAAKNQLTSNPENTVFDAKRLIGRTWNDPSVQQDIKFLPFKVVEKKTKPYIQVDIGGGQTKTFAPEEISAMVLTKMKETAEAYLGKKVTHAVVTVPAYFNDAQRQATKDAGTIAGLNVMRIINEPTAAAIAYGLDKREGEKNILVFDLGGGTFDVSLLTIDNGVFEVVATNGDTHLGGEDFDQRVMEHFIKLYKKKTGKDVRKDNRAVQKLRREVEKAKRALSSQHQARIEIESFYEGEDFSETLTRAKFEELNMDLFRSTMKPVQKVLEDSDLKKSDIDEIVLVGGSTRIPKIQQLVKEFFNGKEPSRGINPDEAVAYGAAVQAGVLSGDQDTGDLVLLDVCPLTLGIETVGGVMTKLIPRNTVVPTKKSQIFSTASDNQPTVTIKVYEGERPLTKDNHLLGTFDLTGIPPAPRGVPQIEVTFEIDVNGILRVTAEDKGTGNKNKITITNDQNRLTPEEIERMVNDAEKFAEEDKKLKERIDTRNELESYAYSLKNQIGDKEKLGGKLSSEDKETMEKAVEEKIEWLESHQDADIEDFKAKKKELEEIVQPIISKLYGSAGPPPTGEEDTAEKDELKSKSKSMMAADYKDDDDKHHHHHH

recombinant human BiP with C-terminal linker, FLAG-tag and His-tag (BiP-FLAG-His), P11021 19-654
Binding to DCs (MFI ratio), BiP, mix of HSP70/BiP-binding peptides + BiP [1]: 1.8 MFI ratio | Binding to DCs (MFI ratio), BiP, mix of HSP70/BiP-binding peptides + BiP [2]: 1.8 MFI ratio | Binding to DCs (MFI ratio), BiP, mix of HSP70/BiP-binding peptides + BiP [3]: 1.8 MFI ratio | Binding to DCs (MFI ratio), BiP, mix of HSP70/BiP-binding peptides + BiP [4]: 1.8 MFI ratio | Binding to DCs (MFI ratio), BiP, Aβ16-22/Aβ25-35 + BiP [5]: 261 MFI ratio | Binding to DCs (MFI ratio), BiP, Aβ16-22/Aβ25-35 + BiP [6]: 261 MFI ratio
